{"source": "patent US20240376224A1", "about": "(University of California, published 2024)", "binders": {"B1": {"name": "CL03 IgG (antibody, V domains shown)", "VH": "EVQLVESGGGLVQPGGSLRLSCAASGFNFSSYSIHWVRQAPGKGLEWVASIYPYSGSTYYADSVKGRFTISADTSKNTAYLQMNSLRAEDTAVYYCARQSHSYYSHTWWVSYGMDYWGQGTLVTVSS", "VL": "DIQMTQSPSSLSASVGDRVTITCRASQSVSSAVAWYQQKPGKAPKLLIYSASSLYSGVPSRFSGSRSGTDFTLTISSLQPEDFATYYCQQSGQRPITFGQGTKVEIKR", "notes": "also called IgG CL03"}}, "key": {"[1]": {"biological_target": "T1, mouse c-CDCP1 (recombinant cleaved mouse CDCP1) (mouse, UniProt Q5U462 30-368; Q5U462 369-666, limits assumed)", "T1 construct": "Mouse antigens made were c-CDCP1-Fc (Cut 1) and (Cut 2); also called mouse cleaved CDCP1; cleaved mCDCP1", "T1 sequence 1": "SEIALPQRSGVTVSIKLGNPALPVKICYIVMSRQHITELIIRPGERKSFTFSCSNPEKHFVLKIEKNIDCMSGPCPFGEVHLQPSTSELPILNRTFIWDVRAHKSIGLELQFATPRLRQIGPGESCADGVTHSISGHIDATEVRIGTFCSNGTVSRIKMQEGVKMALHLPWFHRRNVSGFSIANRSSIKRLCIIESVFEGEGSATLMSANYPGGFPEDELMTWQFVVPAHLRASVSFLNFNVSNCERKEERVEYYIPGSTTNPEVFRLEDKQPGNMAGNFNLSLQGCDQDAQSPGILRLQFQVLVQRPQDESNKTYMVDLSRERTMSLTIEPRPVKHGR", "T1 sequence 2": "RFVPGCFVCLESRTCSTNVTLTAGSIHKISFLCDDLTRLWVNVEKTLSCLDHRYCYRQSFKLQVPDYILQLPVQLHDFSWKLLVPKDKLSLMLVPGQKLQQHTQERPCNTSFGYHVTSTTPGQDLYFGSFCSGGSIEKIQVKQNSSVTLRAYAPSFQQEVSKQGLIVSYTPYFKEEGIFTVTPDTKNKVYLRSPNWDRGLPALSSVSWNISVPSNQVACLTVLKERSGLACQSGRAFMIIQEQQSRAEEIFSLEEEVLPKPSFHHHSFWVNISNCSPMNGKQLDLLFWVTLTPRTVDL", "assay": "BLI (Octet), mouse c-CDCP1-Fc on the sensor, IgG CL03 as analyte"}, "c-CDCP1-Fc (Cut 3)": {"biological_target": "T2, c-CDCP1-Fc (Cut 3) (human, UniProt Q9H5V8 30-369; Q9H5V8 370-667)", "T2 construct": "Co-transfection of NTF and CTF-Fc plasmids; not shown: Fc domain", "T2 sequence 1": "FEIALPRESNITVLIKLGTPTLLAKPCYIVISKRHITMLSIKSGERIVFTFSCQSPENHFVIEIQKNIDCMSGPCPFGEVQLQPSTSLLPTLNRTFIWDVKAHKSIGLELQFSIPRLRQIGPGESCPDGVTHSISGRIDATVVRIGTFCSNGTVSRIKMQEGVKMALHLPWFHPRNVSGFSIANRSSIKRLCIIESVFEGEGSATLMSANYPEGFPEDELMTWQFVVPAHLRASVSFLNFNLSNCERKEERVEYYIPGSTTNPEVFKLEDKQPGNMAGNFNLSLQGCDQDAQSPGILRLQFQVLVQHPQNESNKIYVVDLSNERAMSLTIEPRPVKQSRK", "T2 sequence 2": "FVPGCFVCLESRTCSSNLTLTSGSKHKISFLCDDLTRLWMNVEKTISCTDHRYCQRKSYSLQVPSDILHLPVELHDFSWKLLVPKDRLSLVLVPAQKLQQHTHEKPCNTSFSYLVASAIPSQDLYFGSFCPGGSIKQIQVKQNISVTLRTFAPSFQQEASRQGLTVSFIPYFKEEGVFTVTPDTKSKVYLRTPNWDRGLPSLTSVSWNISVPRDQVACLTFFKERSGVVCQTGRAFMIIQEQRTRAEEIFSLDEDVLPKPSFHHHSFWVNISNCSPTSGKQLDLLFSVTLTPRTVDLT", "assay": "BLI (Octet), table of in vitro binding affinities", "procedure": "(§1) BLI experiments were performed using an Octet RED384 instrument (ForteBio). Biotinylated proteins were immobilized on a streptavidin (SA) biosensor and His-tagged proteins were immobilized on a Ni-NTA biosensor. Different concentrations of analyte in PBS pH 7.4+0.05% Tween-20+0.2% BSA (PBSTB) were used as analyte. Affinities (KDS) were calculated from a global fit (1:1) of the data using the Octet RED384 software."}, "c-CDCP1-Fc (Cut 2)": {"biological_target": "T3, c-CDCP1-Fc (Cut 2) (human, UniProt Q9H5V8 30-368; Q9H5V8 369-667)", "T3 construct": "Co-transfection of NTF and CTF-Fc plasmids; not shown: Fc domain", "T3 sequence 1": "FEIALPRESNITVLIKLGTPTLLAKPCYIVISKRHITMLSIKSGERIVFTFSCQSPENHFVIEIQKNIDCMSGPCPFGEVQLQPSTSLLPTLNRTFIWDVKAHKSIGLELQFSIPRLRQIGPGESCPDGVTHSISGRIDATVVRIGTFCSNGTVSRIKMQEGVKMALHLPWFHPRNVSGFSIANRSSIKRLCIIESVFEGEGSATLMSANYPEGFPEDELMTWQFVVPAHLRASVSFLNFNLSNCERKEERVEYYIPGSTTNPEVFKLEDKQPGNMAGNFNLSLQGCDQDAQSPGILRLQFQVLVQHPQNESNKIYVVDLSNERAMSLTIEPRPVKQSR", "T3 sequence 2": "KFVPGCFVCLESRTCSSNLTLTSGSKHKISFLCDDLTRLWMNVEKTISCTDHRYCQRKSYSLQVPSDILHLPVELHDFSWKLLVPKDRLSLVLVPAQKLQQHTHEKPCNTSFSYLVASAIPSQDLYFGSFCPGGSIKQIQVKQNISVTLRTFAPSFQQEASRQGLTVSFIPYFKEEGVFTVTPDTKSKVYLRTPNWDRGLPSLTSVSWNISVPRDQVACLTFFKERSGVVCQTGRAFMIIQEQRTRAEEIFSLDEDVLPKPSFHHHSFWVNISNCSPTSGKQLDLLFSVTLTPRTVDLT", "assay": "BLI (Octet), table of in vitro binding affinities", "procedure": "as §1"}}, "data": [{"binder": "B1", "values": [{"measurement": "binding result", "setting": "[1]", "value": "no binding (tested: not printed)"}, {"measurement": "Kd", "setting": "c-CDCP1-Fc (Cut 3)", "value": 0.15, "unit": "nM"}, {"measurement": "koff", "setting": "c-CDCP1-Fc (Cut 3)", "value": "7.43e-05", "unit": "s⁻¹"}, {"measurement": "kon", "setting": "c-CDCP1-Fc (Cut 3)", "value": 492000, "unit": "M⁻¹ s⁻¹"}, {"measurement": "Kd", "setting": "c-CDCP1-Fc (Cut 2)", "value": 0.37, "unit": "nM"}, {"measurement": "koff", "setting": "c-CDCP1-Fc (Cut 2)", "value": 0.000174, "unit": "s⁻¹"}, {"measurement": "kon", "setting": "c-CDCP1-Fc (Cut 2)", "value": 473000, "unit": "M⁻¹ s⁻¹"}]}]}
